Source: US20250361282A1 (Bayer, published 2025)
“And” between values parts separate entries of the source, which are not always exact repeats. Identical values can stand only once.

T1: rat NPR-A (rat, UniProt P18910 29-1057)
T1 sequence (looked up): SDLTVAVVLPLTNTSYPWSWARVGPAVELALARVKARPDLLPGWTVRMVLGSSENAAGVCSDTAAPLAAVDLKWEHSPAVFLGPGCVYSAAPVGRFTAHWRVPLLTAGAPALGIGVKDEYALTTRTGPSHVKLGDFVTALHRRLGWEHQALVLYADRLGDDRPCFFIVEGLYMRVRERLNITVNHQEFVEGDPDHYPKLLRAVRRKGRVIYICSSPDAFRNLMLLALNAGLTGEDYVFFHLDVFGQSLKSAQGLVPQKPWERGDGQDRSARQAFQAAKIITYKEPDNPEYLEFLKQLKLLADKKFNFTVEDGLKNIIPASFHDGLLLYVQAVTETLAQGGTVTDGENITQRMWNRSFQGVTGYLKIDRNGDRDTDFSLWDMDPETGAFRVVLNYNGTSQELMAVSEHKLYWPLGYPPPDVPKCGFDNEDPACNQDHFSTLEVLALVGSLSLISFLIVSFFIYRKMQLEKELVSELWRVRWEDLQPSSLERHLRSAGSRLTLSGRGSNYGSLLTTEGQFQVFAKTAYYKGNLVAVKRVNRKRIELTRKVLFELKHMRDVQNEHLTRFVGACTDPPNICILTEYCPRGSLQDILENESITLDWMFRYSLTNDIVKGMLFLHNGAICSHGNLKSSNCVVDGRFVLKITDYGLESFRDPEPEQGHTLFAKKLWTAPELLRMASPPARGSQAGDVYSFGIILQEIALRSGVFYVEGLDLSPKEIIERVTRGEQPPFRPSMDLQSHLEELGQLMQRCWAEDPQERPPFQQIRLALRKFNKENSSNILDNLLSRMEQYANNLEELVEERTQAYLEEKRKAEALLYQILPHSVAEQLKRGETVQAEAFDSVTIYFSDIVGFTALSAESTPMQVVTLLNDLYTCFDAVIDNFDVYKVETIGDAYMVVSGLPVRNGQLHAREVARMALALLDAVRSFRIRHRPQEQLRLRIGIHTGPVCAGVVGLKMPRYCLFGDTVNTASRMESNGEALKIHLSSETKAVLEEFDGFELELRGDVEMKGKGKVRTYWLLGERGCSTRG

T2: human NPRA (human, UniProt P16066 33-1061)
T2 sequence (looked up): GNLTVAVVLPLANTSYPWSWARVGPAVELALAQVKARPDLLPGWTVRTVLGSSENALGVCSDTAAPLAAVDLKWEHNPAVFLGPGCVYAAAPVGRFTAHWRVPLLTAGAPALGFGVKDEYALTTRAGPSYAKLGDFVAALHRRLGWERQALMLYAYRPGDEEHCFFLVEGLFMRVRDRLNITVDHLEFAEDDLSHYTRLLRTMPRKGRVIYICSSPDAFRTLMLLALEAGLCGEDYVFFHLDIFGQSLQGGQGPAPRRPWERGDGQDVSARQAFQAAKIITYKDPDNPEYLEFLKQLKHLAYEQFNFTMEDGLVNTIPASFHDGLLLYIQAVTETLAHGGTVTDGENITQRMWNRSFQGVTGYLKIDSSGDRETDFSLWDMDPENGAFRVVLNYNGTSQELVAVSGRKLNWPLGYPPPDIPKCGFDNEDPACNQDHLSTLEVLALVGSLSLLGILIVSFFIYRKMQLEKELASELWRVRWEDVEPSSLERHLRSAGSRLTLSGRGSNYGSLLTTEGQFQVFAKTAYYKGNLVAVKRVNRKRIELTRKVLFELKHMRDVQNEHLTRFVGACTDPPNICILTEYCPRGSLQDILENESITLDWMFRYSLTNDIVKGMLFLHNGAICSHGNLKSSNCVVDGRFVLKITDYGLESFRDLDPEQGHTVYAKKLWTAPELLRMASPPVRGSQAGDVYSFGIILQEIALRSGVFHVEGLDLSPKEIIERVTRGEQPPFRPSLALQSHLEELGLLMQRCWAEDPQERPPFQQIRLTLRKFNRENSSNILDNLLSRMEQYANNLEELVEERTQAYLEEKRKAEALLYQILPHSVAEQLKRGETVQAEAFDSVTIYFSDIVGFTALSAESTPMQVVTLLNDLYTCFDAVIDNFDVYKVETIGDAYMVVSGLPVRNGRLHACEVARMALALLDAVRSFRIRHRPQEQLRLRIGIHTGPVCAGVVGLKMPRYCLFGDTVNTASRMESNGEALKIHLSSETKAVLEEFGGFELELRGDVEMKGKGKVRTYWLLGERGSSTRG

B1: TPP-11156 (antibody, human IgG1, lambda)
heavy: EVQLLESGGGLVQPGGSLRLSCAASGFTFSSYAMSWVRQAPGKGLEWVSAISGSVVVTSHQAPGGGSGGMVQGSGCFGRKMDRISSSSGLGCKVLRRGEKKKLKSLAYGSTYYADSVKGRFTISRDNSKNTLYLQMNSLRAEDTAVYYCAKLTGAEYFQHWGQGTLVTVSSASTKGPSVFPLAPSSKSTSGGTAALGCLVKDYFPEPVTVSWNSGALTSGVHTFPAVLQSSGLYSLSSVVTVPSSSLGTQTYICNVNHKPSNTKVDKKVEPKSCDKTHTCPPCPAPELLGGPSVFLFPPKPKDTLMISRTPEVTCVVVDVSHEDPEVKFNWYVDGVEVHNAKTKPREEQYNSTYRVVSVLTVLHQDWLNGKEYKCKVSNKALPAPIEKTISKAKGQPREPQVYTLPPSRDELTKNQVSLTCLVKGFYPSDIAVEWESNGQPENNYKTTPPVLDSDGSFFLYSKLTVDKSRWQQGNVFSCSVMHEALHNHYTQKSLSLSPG
light: QSVLTQPPSVSGAPGQRVTISCTGSSSNIGAGYDVHWYQQLPGTAPKLLIYGNSNRPSGVPDRFSGSKSGTSASLAITGLQAEDEADYYCQSYDSSLSGVVFGGGTKLTVLGQPKAAPSVTLFPPSSEELQANKATLVCLISDFYPGAVTVAWKADSSPVKAGVETTTPSKQSNNKYAASSYLSLTPEQWKSHRSYSCQVTHEGSTVEKTVAPTECS
B2: TPP-10294 (antibody, human IgG1, lambda)
heavy: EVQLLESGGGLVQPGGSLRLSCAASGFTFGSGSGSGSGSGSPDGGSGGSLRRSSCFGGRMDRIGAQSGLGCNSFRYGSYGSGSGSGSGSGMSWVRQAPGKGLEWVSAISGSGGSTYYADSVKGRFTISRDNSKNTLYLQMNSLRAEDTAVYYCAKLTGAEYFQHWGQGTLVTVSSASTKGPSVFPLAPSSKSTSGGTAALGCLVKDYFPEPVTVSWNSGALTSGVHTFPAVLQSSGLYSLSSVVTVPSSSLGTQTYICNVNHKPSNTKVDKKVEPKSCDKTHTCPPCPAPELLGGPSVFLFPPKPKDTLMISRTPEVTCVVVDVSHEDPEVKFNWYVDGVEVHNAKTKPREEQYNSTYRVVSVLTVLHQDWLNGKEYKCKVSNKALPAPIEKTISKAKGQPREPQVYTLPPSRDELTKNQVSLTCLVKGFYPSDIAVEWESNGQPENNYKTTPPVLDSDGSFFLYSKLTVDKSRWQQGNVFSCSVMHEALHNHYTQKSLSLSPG
light: B1 light
B3: TPP-11157 (antibody, V domains shown)
VH: GFTFSSYAMSWVRQAPGKGLEWVSAISGSVVVTSHQAPGGGSGGGEKKKLKSLAYGSTYYADSVKGRFTISRDNSKNTLYLQMNSLRAEDTAVYYCAKLTGAEYFQHWGQGTLVTVSS
VL: QSVLTQPPSVSGAPGQRVTISCTGSSSNIGAGYDVHWYQQLPGTAPKLLIYGNSNRPSGVPDRFSGSKSGTSASLAITGLQAEDEADYYCQSYDSSLSGVVFGGGTKLTVLG
B4: TPP-13061 (antibody, human IgG1, lambda)
heavy: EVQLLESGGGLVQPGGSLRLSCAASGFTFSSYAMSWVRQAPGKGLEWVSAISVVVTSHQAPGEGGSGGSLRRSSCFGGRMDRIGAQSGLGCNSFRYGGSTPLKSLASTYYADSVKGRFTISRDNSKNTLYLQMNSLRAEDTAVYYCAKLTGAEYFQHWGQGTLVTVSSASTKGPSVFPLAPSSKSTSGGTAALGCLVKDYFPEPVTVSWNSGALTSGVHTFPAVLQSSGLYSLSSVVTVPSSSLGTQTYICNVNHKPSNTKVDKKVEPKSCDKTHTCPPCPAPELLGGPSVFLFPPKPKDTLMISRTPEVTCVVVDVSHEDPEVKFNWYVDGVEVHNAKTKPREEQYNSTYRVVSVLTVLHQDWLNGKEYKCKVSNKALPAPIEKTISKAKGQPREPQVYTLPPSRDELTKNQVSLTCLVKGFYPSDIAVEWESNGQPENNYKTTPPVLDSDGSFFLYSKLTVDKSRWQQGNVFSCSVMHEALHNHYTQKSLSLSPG
light: B1 light
B5: TPP-10765 (antibody, human IgG1, lambda)
heavy: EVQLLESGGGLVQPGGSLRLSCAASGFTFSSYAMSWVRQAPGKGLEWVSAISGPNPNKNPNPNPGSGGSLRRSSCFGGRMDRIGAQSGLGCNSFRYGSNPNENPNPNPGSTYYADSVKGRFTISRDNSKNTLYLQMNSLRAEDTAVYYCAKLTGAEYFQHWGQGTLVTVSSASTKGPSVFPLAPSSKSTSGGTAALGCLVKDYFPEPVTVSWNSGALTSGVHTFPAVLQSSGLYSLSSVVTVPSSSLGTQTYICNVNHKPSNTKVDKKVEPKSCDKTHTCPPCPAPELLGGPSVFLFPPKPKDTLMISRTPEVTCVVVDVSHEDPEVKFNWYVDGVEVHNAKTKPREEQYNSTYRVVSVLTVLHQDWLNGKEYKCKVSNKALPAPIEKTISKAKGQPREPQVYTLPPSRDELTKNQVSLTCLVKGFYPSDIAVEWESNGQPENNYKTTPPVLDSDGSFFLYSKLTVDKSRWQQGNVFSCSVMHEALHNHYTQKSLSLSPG
light: B1 light
B6: TPP-10847 (antibody, human IgG1, lambda)
heavy: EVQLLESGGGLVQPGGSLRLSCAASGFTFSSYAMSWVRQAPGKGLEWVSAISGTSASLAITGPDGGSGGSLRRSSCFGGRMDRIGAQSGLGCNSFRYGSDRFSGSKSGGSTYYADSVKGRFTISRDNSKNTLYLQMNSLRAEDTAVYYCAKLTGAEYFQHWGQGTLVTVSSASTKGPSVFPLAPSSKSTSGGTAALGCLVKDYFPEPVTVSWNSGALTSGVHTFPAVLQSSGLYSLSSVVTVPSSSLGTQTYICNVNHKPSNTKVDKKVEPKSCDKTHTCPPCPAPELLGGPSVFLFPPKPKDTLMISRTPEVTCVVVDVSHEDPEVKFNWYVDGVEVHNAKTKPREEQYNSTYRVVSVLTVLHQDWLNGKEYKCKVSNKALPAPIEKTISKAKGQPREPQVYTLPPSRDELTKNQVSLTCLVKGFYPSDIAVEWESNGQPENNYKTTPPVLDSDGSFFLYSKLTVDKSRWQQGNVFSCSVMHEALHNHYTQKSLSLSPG
light: B1 light
B7: TPP-10992 (antibody, human IgG4 S228P, lambda)
heavy: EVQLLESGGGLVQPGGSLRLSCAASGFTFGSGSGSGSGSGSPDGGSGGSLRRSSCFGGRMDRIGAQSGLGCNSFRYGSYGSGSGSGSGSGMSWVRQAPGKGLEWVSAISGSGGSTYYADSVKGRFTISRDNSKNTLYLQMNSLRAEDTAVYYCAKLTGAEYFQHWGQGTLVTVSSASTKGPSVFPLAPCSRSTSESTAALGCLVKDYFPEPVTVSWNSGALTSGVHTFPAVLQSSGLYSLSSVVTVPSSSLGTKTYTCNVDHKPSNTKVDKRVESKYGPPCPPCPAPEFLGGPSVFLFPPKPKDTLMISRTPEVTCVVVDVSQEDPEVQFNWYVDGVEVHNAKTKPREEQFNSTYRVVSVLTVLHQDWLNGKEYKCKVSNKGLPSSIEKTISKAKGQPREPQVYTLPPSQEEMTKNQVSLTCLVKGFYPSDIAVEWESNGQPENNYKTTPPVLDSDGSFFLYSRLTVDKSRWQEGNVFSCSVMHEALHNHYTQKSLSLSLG
light: B1 light
B8: TPP-10845 (antibody, human IgG1, lambda)
heavy: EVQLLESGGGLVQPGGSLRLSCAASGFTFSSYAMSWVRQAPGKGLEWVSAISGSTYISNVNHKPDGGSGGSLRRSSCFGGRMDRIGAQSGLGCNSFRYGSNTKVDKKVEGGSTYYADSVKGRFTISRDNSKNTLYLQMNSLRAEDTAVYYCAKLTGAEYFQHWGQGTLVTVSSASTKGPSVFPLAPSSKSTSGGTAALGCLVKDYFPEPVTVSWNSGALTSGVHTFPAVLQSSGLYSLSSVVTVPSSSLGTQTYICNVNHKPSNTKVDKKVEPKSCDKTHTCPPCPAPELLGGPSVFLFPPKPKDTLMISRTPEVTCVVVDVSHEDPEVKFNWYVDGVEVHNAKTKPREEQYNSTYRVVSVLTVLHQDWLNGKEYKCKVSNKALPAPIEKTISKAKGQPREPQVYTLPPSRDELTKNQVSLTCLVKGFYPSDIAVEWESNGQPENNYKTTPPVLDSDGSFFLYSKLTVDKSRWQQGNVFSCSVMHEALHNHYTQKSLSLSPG
light: B1 light

What was measured:
[1] = target: T1, rat NPR-A; experiment: cell-based or functional assay
[2] = target: T2, human NPRA; experiment: cell-based or functional assay

Binder | EC50, fluorescence signal of rat NPR-A / CNGA2 (cGMP biosensor) / GCaMP6 CHO reporter cells [1] [nM] | activity rcs (cGMP, hNPRA-CHO k1) [2] [%] | average rel logEC50 (vs TPP-5661) [2] | rel. logEC50 pcs 5 (vs TPP-5661, hNPRA-CHO k1) [2] | rel. logEC50 pcs 6 (vs TPP-5661, hNPRA-CHO k1) [2] | also measured
B1 | 1200 |  |  |  |  | EC50 on rNPRA reporter cells [1]: > 1 µM
B2 |  | 41 | -0.3 |  |  | rel. logEC50* pcs (vs TPP-5661, hNPRA-HEK293) [2]: -0.5 and -0.6 and -0.4; rel. logEC50 pcs 4 (vs TPP-5661, hNPRA-CHO k1) [2]: -0.2; rel. logEC50 pcs 7 (vs TPP-5661, hNPRA-CHO k1) [2]: 0
B3 | 11 |  |  |  |  | EC50 on rNPRA reporter cells [1]: < 0.02 µM
B4 |  |  | -0.7 |  |  | rel. logEC50* pcs (vs TPP-5661, hNPRA-HEK293) [2]: -0.6 and -0.8
B5 |  | 72 | -0.4 | -0.9 | -0.4 | rel. activity rcs (delta logEC50 vs TPP-5661, hNPRA-CHO k1) [2]: -0.9; rel. logEC50 pcs 7 (vs TPP-5661, hNPRA-CHO k1) [2]: 0.2
B6 |  |  | -0.5 | 0 | -0.9 | 
B7 | 180 |  |  |  |  | 
B8 |  | 67 | -0.6 | -0.4 | -0.8 | 
